Data set [1] deals with SARS-CoV-2 spike S1 subunit (SARS-CoV-2, UniProt P0DTC2 16-685). Nature of the data set: SPR. Conditions: protein: commercial.
A further data set addresses MERS-CoV RBD (MERS-CoV, UniProt K9N5Q8 367-606). The conditions noted are these: protein: commercial; label: 3'-biotin-TEG (SPR).
The target of a further data set is SARS-CoV-1 RBD (SARS-CoV-1, UniProt P59594 306-527). The conditions noted are these: protein: commercial; label: 3'-biotin-TEG (SPR).

GGGTGAATCTATGGGGTGGGCAGGGG (XNA) [SPA1-M12]: the binding result in data set [1] is reported as “binds”.

On to GGGTGAATCTATGGGGTGGGCAGGGG (XNA) [SPA1-M13], for which the Kd (in general, the concentration at which binding is half-saturated) with MERS-CoV RBD came out at 4 nM; with SARS-CoV-1 RBD it was 8.7 nM.

The values above are taken from paper PMC10993888.
